Laboratory results reported in paper PMC2173330 (The Journal of Cell Biology, 2002).

Biological target: T1, XSMC1 (Xenopus (endogenous in egg extracts), UniProt O93308 1-1232)
T1 sequence: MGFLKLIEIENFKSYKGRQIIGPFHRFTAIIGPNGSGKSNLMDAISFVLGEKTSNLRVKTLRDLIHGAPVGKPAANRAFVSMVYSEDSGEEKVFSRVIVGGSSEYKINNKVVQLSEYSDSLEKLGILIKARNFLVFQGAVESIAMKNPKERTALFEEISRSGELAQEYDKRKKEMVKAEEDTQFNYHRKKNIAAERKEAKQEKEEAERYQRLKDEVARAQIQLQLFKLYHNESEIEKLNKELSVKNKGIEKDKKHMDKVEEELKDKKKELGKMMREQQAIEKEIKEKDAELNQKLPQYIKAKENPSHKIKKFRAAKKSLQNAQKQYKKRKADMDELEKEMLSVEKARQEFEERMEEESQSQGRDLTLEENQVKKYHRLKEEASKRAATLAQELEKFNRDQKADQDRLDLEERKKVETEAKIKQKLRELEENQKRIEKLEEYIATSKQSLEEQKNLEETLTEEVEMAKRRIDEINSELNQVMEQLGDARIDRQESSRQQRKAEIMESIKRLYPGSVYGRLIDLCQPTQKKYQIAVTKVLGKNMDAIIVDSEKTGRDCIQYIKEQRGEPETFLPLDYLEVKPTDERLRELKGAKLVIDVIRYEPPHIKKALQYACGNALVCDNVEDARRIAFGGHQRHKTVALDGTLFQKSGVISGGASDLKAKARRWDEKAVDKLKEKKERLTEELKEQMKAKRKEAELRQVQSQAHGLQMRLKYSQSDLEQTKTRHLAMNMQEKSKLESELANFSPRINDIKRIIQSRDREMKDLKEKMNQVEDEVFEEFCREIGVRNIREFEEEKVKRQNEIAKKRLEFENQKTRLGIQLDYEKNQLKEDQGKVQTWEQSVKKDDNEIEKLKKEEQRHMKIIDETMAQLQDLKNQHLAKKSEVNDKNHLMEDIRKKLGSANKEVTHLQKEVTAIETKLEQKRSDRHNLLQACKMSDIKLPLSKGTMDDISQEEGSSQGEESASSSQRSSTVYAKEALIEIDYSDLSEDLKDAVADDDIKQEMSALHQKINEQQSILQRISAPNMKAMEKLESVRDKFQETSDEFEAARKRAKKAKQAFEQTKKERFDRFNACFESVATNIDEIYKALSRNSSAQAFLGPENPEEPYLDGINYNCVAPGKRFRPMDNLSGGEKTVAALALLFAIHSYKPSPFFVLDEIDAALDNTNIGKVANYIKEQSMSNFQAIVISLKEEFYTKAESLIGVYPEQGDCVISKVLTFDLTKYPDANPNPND
Test: rotary-shadowing electron microscopy

B1: XSMC3 (natural protein)
chain: MYIKQVIIQGFRSYRDQTIVDPFSSKHNVIVGRNGSGKSNFFYAIQFVLSDEFSHLRPEQRLALLHEGTGPRVISAFVEIIFDNSDNRLPIDKEEVSLRRVIGAKKDQYFLDKKMVTKNDVMNLLESAGFSRSNPYYIVKQGKINQMATAPDSQRLKLLREVAGTRVYDERKEESISLMKETEGKRDKINELLKYIEERLHTLEEEKEELAQYQKWDKMRRALEYTIYNQELNETRAKLDELSSKRETSGEKSRQLRDAQQDARDKMEEIERQVRELKSKISAMKEEKEQLSSERQEQIKQRTKLELKTKDLQDELAGNSEQRKRLLKERQKLLEKIEEKQKELAETEPKFSSVKQKEESGIARLAQATQERTDLYAKQGRGSQFTSKEERDKWIKKELKSLDQAINDKKRQIAAINKDLEETEVNKEKNLEQYTKLDQDLNEVKTRVEELDKKYYEVKNKKDELQSERNYLWREENAEQQSLAAKREDLEKKQQLLRAATGKAILNGIDSINKVLEHFRRKGINQHVINGYHGIVMNNFDCEPAFYTCVEVTAGNRLFYHIVESDEVSTKILMEFNKMNLPGEVTFLPLNKLDVRDTAYPETNDAIPMISKLRYNLRFDKAFKHVFGKTLICRSMEVSTQLARAFTMDCITLEGDQVSHRGALTGGYYDTRKSRLELQKDVRKVEDELHALEAKLNENLRRNIERINNEIDQLMNQMQQIETQQRKFKASRDSILSEMKMLKEKRQQSEKTFMPKQRSLQSLEASLHAMESTRESLKAELGTDLLSQLSLEDQKRVDALNDEIRQLQQENRQLLNERIKLEGTITRVETYLNENLRKRLDQVEQELNELRETEGGTVLTATTSELEAINKRVKDTLARSEGLDITIDKTEVESKDLVKSMDRWKNMEKDHMDAINHDTKELEKMTNRQGMLLKKKEECMKKIRELGSLPQEAFEKYQTLSLKQLFRKLEQCNTELKKYSHVNKKALDQFVNFSEQKEKLIKRQEELDRGHKSIMELMNVLELRKYEAIQLTFKQVSKNFSEVFQKLVPGGKATLVMKKGDVEGSQSQDEGEGSTQSSVPSVDQFTGVGIRVSFTGKQAEMREMQQLSGGQKSLVALALIFAIQKCDPAPFYLFDEIDQALDAQHRKAVSDMIMELASHAQFITTTFRPELLESADKFYGVKFRNKVSHIDVITAEQAKDFVEDDTTHG
binding result: binds
